Assay [1] has as its target ACE2 receptor (UniProt Q9BYF1). Description: ELISA; competitive ELISA of ACE2 binding; Alhydrogel-adsorbed DCFHP incubated overnight at 4, 40 or 50 °C, compared with a reference sample adsorbed on the day of the assay. On the technique in general: In an ELISA, binding on a coated surface is turned into a signal by an enzyme label.
In assay [2] the target is ACE2 receptor (UniProt Q9BYF1). Description: ELISA; competitive ELISA of ACE2 binding; DCFHP 100% adsorbed to Alhydrogel (no phosphate), time zero against storage at 4 °C for 3-21 days (mean 10 days); read-out is the native antigen concentration against a reference, target 50 mcg/mL.

UniProt Q9BYF1, sequence (Q9BYF1 18-805): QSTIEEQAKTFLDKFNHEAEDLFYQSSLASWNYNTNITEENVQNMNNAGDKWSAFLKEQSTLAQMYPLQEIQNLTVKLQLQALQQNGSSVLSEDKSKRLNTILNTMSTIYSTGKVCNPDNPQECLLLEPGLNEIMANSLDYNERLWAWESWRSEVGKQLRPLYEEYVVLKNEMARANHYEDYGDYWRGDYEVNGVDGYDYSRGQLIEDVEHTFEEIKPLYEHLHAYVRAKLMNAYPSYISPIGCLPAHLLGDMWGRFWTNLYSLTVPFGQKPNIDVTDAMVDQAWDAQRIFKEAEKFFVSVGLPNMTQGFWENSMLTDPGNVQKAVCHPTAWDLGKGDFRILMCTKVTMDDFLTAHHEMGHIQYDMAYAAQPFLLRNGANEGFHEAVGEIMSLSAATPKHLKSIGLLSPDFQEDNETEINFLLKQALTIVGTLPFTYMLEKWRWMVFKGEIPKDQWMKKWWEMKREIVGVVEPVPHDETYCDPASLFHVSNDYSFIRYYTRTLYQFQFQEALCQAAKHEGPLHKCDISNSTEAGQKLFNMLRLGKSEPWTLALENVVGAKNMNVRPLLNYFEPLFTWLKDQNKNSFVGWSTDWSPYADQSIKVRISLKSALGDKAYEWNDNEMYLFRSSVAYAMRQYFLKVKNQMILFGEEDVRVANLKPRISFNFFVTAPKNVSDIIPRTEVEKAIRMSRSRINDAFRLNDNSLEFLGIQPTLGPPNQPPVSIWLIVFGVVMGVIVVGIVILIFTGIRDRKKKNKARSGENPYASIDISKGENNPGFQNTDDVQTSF

Regarding “Delta-C70-Ferritin-HexaPro SARS-CoV-2 spike ferritin nanoparticle produced in Expi293 cells”, in the assay with ACE2 receptor [1], the loss of ACE2 binding after overnight incubation at 40°C (AH-adsorbed) was determined as 60% and the loss of ACE2 binding after overnight incubation at 50°C (AH-adsorbed) was determined as 80%. In addition, in the assay with ACE2 receptor [2], the native antigen concentration by ACE2 competitive ELISA, freshly adsorbed (time zero) came to 48 µg/mL and the native antigen concentration by ACE2 competitive ELISA, stored at 4°C for 3-21 days worked out at 75 µg/mL.
